Tested on: MS2 coat protein
Experiment: apparent KD of MS2 coat protein; designed switch direction (-1 OFF switch, 1 ON switch): -1; higher = weaker reporter binding
In short: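 RNA switches sharing common flanks were transcribed by stalled E. coli RNA polymerase on Illumina chips. A doubling series of SNAP-549-labelled MS2 coat protein, from 0.7 or 1.5 nM to 3 µM, was applied in Tris-HCl pH 7.5 buffer with KCl, MgCl2, BSA, DTT, tRNA and Tween-20. Each step lasted 0.8–1.5 h at the bottom of the series and 10–20 min at the top. Normalised cluster fluorescence was curve-fitted, giving apparent KD as the per-design median over clusters.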

[1] = Eterna round: R95, input ligand: microRNA oligo, concentration not stated
[2] = input ligand: microRNA oligo, concentration not stated

| Sequence | apparent KD of MS2 coat protein (input ligand: FMN 200 uM) [nM] | apparent KD of MS2 coat protein (input ligand: none) [nM] | apparent KD of MS2 coat protein [1] [nM] | further results |
| --- | --- | --- | --- | --- |
| GUCCAGGCAGGAUAUGUACAGGAGCACUUGAGGAUCACCCAAGUCCUCGUGUUGUUGUCAGCAGAAGGGCCCAUUA [Dizaquin] (Eterna round: R97, puzzle: Exclusion 5) | 529 | 187 |  |  |
| GCGUGACAUGAGGAUCACCCAUGUGAGGAUAUCUGGACACUCUUUAUUUUAGAUGUCCAGAGAAGGCACAUGCU [Ex1-3: 5Z] (puzzle: Exclusion 1) |  |  | 220 |  |
| AUAUAGCGAGGAUAUACAUGAGGAUCACCCAUGUGGUAGUAGAUACGGUAGGGCUAGUGUAGAAGGUGCUAUGA [EX3 #12] (Eterna round: R97, puzzle: Exclusion 3) | 450 | 231 |  |  |
| CAACCUCACGAGGAUAUCAAUGCUAGUUGGCGUUGAGAAGGCGUAACAUGAGGAUCACCCAUGUGGUGGCGUAU [Eternabot (Original) Solution 26] (Eterna round: R97, puzzle: Exclusion 6) | 1020 | 921 |  |  |
| UGAAGUUGUGUGAGGAUAUUUGAAGUGAAAGCUUCGGAGAAGGCACAUGAGGAUCACCCAUGUAAGCGGCUUCG [-25.1, -23 kcal, A 26%, 3bis-3] (Eterna round: R97, puzzle: Brourd's mod of Exclusion 4) | 18.4 | 15 |  |  |
| GUAGAGUCAGGAUAUACAAGAUCGAAAGAUCGAAGAUCCAUACAUGAGGAUCACCCAUGUAGAAGGGACUCUAC [ChP 11-04-2015 #3] (puzzle: Exclusion 2) |  |  | 16.9 |  |
| CACACGUAAGGAUAUACAACGGAAACGGGCGCGCGGGCCUCACAUGAGGAUCACCCAUGUAGAAGGUGCACGGG [Eternabot (Original) Solution 18] (Eterna round: R97, puzzle: Exclusion 2) | 41.7 | 50.3 |  |  |
| CAUGCUUCGGCAUGUACAAGCUUUUUGCUCGUCUUAUUAACAUGAGGAUCACCCAUGUCAAAGAGACCUCAUGUAUU [Sensor v3 - turn-off variant 2 - 3] (puzzle: Sensor v3, turn-off variant 2) |  |  | 16 | apparent KD of MS2 coat protein (Eterna round: R95, input ligand: FMN 200 uM): 356 nM; apparent KD of MS2 coat protein (Eterna round: R95, input ligand: none): 263 nM |
| UACCUAUAGGUAGGAUAUCAUUGCGAUUAGCUAUGAGAAGGACCACAUGAGGAUCACCCAUGUCCUCCAAUUAACCGAAAGGUA [Fiskers ExNg1 - 2] (Eterna round: R96, puzzle: Exclusion NG 1) | 77.3 | 50.4 |  | apparent KD of MS2 coat protein [2]: 39.7 nM |
| CUGCUCCGUGUAGGAUAUGCGUACAACCAAUAUGCAGAAGGACAUGAGGAUCACCCAUGUAUGUUAUUAUCACGUGAAGCGUCC [Design 21] (Eterna round: R96, puzzle: Exclusion NG 1) |  |  |  | apparent KD of MS2 coat protein [2]: 16 nM |
| CGAGCUUUUUGCUCGUCUUACAUGAGGAUCACCCAUGUCAAACAAACAAACAAACGAAAGUUUGUUUGUUUGUUUGA [Mod of sellena 2] (Eterna round: R97, puzzle: Sensor, turn-off variant 1) | 29.4 | 30 |  |  |
| UUUUAGGAAGGAUAUACAUUUUUUUUAUUAUCCUCAUUAUUACAUGAGGAUCACCCAUGUAGAAGGUCCAUUUU [My Design] (puzzle: Exclusion 2) |  |  | 175 |  |
| GAUAGAGAGCAGGAUAUCAUAGAAAUGUAUGAAUGAGAAGGGCUCACAUGAGGAUCACCCAUGUGGUCCUAGAU [JL Dibiri mod 19] (Eterna round: R96, puzzle: Exclusion 6) |  |  |  | apparent KD of MS2 coat protein [2]: 23.4 nM |
| UGCCGUUGAGGAUAUACGUAGAAAUAGAUUCAUGUAAAACUACAUGAGGAUCACCCAUGUAGAAGGCAAUGGCU [Mat - Exclusion 2 - JL Mod - D47] (Eterna round: R97, puzzle: Exclusion 2) | 221 | 24.4 |  |  |
| AUUUUGUCAGGAUAUGAGUAGUAGGACGAAAGUGCUACUACUUAGAAGGGACAUGAGGAUCACCCAUGUCUUCC [Bring Us a Shrubbery-05] (puzzle: Exclusion 4) |  |  | 13.5 |  |
